# Data published in PMC10016340 (Chemical Science, 2023).
# B1: Ubiquitin carboxyl-terminal hydrolase isozyme L1 (UCH-L1) (protein)
# chain: MQLKPMEINPEMLNKVLSRLGVAGQWRFVDVLGLEEESLGSVPAPACALLLLFPLTAQHENFRKKQIEELKGQEVSPKVYFMKQTIGNSCGTIGLIHAVANNQDKLGFEDGSVLKQFLSETEKMSPEDRAKCFEKNEAIQAAHDAVAQEGQCRVDDKVNFHFILFNNVDGHLYELDGRMPFPVNHGASSEDTLLKDAAKVCREFTEREQGEVRFSAVALCKAA
# B2: NAD-dependent protein deacetylase sirtuin-2 (protein)
# chain: MAEPDPSHPLETQAGKVQEAQDSDSDSEGGAAGGEADMDFLRNLFSQTLSLGSQKERLLDELTLEGVARYMQSERCRRVICLVGAGISTSAGIPDFRSPSTGLYDNLEKYHLPYPEAIFEISYFKKHPEPFFALAKELYPGQFKPTICHYFMRLLKDKGLLLRCYTQNIDTLERIAGLEQEDLVEAHGTFYTSHCVSASCRHEYPLSWMKEKIFSEVTPKCEDCQSLVKPDIVFFGESLPARFFSCMQSDFLKVDLLLVMGTSLQVQPFASLISKAPLSTPRLLINKEKAGQSDPFLGMIMGLGGGMDFDSKKAYRDVAWLGECDQGCLALAELLGWKKELEDLVRREHASIDAQSGAGVPNPSTSASPKKSPPPAKDEARTTEREKPQ
# Tests used:
# αSOs-Alexa488 = αSOs-Alexa488 (Homo sapiens, UniProt P37840); experiment: FIDA binding of αSOs to neuronal proteins in solution; conditions: up to 150 μM ligand, in solution
# [1] = target: α-syn monomers, oligomers or fibrils (Homo sapiens, UniProt P37840); experiment: Dot-blot binding assay; conditions: 0.05–0.4 μg immobilized protein, 33 μg mL^−1 α-syn monomer, oligomer or fibril
# α-syn = α-syn (Homo sapiens, UniProt P37840); experiment: ThT aggregation kinetics of α-syn; assay type: biochemical; conditions: 20 μM α-syn, 5 μM ligand; α-syn alone half-time 44 h
molecule,measurement,setting,value
B1,Change in Rh of αSOs-Alexa488 on titration with ligand,αSOs-Alexa488,little change in Rh
same,Binding preference for α-syn species in dot blot,[1],bound most strongly to fibrils
same,Reduction of half-time of aggregation,α-syn,3 fold
B2,Change in Rh of αSOs-Alexa488 on titration with ligand,αSOs-Alexa488,little change in Rh
